The text below walks through data of publication PMC10786891, “Massively parallel profiling of RNA-targeting CRISPR-Cas13d”.

Residue numbers refer to the chain shown, from its start. Names and notes keep the numbering of the source.

T1: EsCas13d, nuclease-dead (Eubacterium siraeum, UniProt B0MS50, R295A;H300A;R849A;H854A)
T1 sequence: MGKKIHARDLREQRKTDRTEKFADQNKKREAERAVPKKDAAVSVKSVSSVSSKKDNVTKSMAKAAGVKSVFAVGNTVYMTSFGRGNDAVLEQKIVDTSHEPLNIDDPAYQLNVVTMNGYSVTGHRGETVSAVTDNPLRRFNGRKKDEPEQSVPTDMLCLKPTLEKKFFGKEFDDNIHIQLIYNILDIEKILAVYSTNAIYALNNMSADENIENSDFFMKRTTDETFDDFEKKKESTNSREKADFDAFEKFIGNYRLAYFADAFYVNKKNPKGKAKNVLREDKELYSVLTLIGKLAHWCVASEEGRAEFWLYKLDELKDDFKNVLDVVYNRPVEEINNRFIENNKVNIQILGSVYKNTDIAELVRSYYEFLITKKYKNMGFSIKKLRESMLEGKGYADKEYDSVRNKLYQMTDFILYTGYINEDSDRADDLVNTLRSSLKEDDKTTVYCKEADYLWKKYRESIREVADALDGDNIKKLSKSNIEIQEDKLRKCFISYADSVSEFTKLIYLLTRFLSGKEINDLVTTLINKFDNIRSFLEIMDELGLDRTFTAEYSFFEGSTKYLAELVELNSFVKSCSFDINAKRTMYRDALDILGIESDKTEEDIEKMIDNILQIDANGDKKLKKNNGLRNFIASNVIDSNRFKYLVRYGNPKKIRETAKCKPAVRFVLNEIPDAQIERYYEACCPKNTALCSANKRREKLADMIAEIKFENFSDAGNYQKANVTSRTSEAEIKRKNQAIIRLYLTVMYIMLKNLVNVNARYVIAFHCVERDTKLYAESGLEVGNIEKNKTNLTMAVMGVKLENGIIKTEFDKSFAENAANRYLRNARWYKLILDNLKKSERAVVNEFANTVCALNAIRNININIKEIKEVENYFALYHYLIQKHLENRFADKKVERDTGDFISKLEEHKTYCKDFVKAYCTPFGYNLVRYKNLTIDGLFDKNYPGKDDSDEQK

B1: target 1 C7G,G17U (mixed)
RNA 1: CACCCGUGCAAAAAUGCAGGGGUCUAAAACUGAGCGGAUAACCUCUCUAUGG
RNA 2: GGGAAUGGAUCCACAUCUACGAAUUCGUACCAUAUAGAGGUUAUGCGCUCACCGAGAUCGGAAGAGCACACGU
B2: target 1 insC 3' of 22,insG 3' of 14 (mixed)
RNA 1: B1 RNA 1
RNA 2: GGGAAUGGAUCCACAUCUACGAAUUCGUACCCAUAGAGAGGGUUAUCCGCUCACCGAGAUCGGAAGAGCACACGU
B3: target 1 insG 3' of 14,insU 3' of 7 (mixed)
RNA 1: B1 RNA 1
RNA 2: GGGAAUGGAUCCACAUCUACGAAUUCGUACCAUAGAGAGGGUUAUCUCGCUCACCGAGAUCGGAAGAGCACACGU
B4: target 1 insG 3' of 10,insU 3' of 9 (mixed)
RNA 1: B1 RNA 1
RNA 2: B3 RNA 2 with G41U, U43G, C46U, U47C
B5: target 1 insU 3' of 13,insA 3' of 10 (mixed)
RNA 1: B1 RNA 1
RNA 2: B3 RNA 2 with G40U, U45A, C46U, U47C
B6: target 1 insC 3' of 12,insC 3' of 11 (mixed)
RNA 1: B1 RNA 1
RNA 2: B3 RNA 2 with G41C, U43C, A44U, U45A, C46U, U47C
B7: target 1 insC 3' of 22,insU 3' of 9 (mixed)
RNA 1: B1 RNA 1
RNA 2: B2 RNA 2 with G42U, U44A, A45U
B8: target 1 U11A,G12A (mixed)
RNA 1: B1 RNA 1
RNA 2: B1 RNA 2 with U35G, G40A, U41A, G45C
B9: target 1 insU 3' of 12,insA 3' of 4 (mixed)
RNA 1: B1 RNA 1
RNA 2: B3 RNA 2 with G41U, U47C, C48G, G49C, C50A
B10: target 1 insG 3' of 14,insU 3' of 6 (mixed)
RNA 1: B1 RNA 1
RNA 2: B3 RNA 2 with U47C, C48U
B11: target 1 insA 3' of 22,insA 3' of 2 (mixed)
RNA 1: B1 RNA 1
RNA 2: GGGAAUGGAUCCACAUCUACGAAUUCGUACACAUAGAGAGGUUAUCCGCUCAACCGAGAUCGGAAGAGCACACGU
B12: target 1 A9C,G17U (mixed)
RNA 1: B1 RNA 1
RNA 2: B1 RNA 2 with A43C, G45C
B13: target 1 insA 3' of 4,insA 3' of 2 (mixed)
RNA 1: B1 RNA 1
RNA 2: B3 RNA 2 with G41U, U43A, A44U, U45C, U47G, G49A, C50U, U51C, C52A
B14: target 1 insG 3' of 14,insC 3' of 10 (mixed)
RNA 1: B1 RNA 1
RNA 2: B3 RNA 2 with A44C, U45A, C46U, U47C
B15: target 1 C4A,G12A (mixed)
RNA 1: B1 RNA 1
RNA 2: B1 RNA 2 with U35G, G40A, G45C, C48A
B16: target 1 insG 3' of 6,insA 3' of 4 (mixed)
RNA 1: B1 RNA 1
RNA 2: B3 RNA 2 with G41U, U43A, A44U, U45C, U47G, C48G, G49C, C50A
B17: target 1 insA 3' of 4,insC 3' of 1 (mixed)
RNA 1: B1 RNA 1
RNA 2: GGGAAUGGAUCCACAUCUACGAAUUCGUACCAUAGAGAGGUUAUCCGCAUCACCCGAGAUCGGAAGAGCACACGU
B18: target 1 insA 3' of 15,insU 3' of 1 (mixed)
RNA 1: B1 RNA 1
RNA 2: B3 RNA 2 with G39A, U47C, C48G, G49C, C50U, U51C, C52A, A53U
B19: target 1 C6U,C22A (mixed)
RNA 1: B1 RNA 1
RNA 2: B1 RNA 2 with C30A, U35G, G45C, C46U
B20: target 1 insC 3' of 17,insG 3' of 8 (mixed)
RNA 1: B1 RNA 1
RNA 2: B3 RNA 2 with A36C, G37A, A38G, G39A, C46G, U47C
B21: target 1 C4U,C6G (mixed)
RNA 1: B1 RNA 1
RNA 2: B1 RNA 2 with U35G, G45C, C46G, C48U
B22: target 1 insG 3' of 11,insG 3' of 9 (mixed)
RNA 1: B1 RNA 1
RNA 2: B3 RNA 2 with G41U, U42G, U45G, C46U, U47C
B23: target 1 del2,del5 (mixed)
RNA 1: B1 RNA 1
RNA 2: GGGAAUGGAUCCACAUCUACGAAUUCGUACCAUAGAGAGGUUAUCCCUACCGAGAUCGGAAGAGCACACGU
B24: target 1 insA 3' of 22,insC 3' of 1 (mixed)
RNA 1: B1 RNA 1
RNA 2: B11 RNA 2 with A53C
B25: target 1 G12A,A16C (mixed)
RNA 1: B1 RNA 1
RNA 2: B1 RNA 2 with U35G, A36C, G40A, G45C
B26: target 1 insG 3' of 1 (mixed)
RNA 1: B1 RNA 1
RNA 2: GGGAAUGGAUCCACAUCUACGAAUUCGUACCAUAGAGAGGUUAUCCGCUCAGCCGAGAUCGGAAGAGCACACGU
B27: target 1 C7U,A14U (mixed)
RNA 1: B1 RNA 1
RNA 2: B1 RNA 2 with U35G, A38U, G45U
B28: target 1 insG 3' of 11,insA 3' of 10 (mixed)
RNA 1: B1 RNA 1
RNA 2: B3 RNA 2 with G41U, U42G, U45A, C46U, U47C
B29: target 1 insC 3' of 11,insG 3' of 11 (mixed)
RNA 1: B1 RNA 1
RNA 2: B3 RNA 2 with G41U, U42C, U43G, A44U, U45A, C46U, U47C
B30: target 1 insA 3' of 19,insU 3' of 18 (mixed)
RNA 1: B1 RNA 1
RNA 2: B3 RNA 2 with G35A, A36U, G40A, U42G, A44U, U45A, C46U, U47C
B31: target 1 G5C,A18U (mixed)
RNA 1: B1 RNA 1
RNA 2: B1 RNA 2 with A34U, U35G, G45C, G47C

This data set concerns the target T1, EsCas13d, nuclease-dead. The experiment in a line: crRNA (strand 1, pre-loaded); Mg2+; 40 mM Tris-HCl pH 7.5, 150 mM NaCl, 6 mM MgCl2, 1 mM DTT, 0.1% Tween-20, 0.2 mg/ml BSA; 25 C; 10 min per concentration, then washed. The conditions noted are these: tags: His6-TwinStrep-SUMO cleaved; N-terminal SNAP kept (SNAP-Surface 488); label: 3' end held by stalled T7 RNA polymerase.
B1 registered a Kd of 35 ± 5 nM.
The value for B2 was 47 ± 5 nM.
In the case of B3, the Kd came out at 18.5 ± 1.2 nM.
The figure for B4 is 18.1 ± 1.4 nM.
For B5, the Kd is 26 ± 5 nM.
The value for B6 was 17 ± 2.8 nM.
In turn, B7 yielded a Kd of 30 ± 5 nM.
The value for B8 was 4 ± 0.29 nM.
The figure for B9 is 6.6 ± 0.8 nM; for B10 it is 39 ± 6 nM.
Turning to B11, the Kd was 12.7 ± 0.5 nM.
Take B12: the affinity, expressed as Kd, was 62 ± 23 nM.
The value for B13 was 6.2 ± 0.5 nM; that for B14 was 47 ± 12 nM; that for B15 was 4.9 ± 0.5 nM.
B16 yielded a Kd of 6.9 ± 0.4 nM.
B17 registered a Kd of 18.9 ± 3.3 nM.
The molecule B18 displayed a Kd of 6.7 ± 0.7 nM.
In the case of B19, the Kd is 15.8 ± 1.4 nM.
With B20, the Kd came to 58 ± 16 nM.
The value for B21 was 5.28 ± 0.32 nM; that for B22 was 17.2 ± 0.6 nM.
On to B23, for which the Kd amounted to 16.9 ± 1 nM.
The figure for B24 is 12.8 ± 0.8 nM; for B25 it is 36 ± 3.3 nM; for B26 it is 9 ± 0.7 nM.
The value for B27 was 37 ± 5 nM; that for B28 was 21.5 ± 2.4 nM; that for B29 was 42 ± 4 nM.
B30 gave a Kd of 32 ± 1.6 nM.
The figure for B31 is 27 ± 4 nM.

As usually defined, the Kd is the free concentration of one partner at which half of the binding sites on the other are occupied at equilibrium, for simple one-to-one binding. A high value points to a looser complex.
